The record followed here is US20170306005A1 (NASCIENT, published 2017).

Residue numbers refer to the chain shown, from its start. Names may count otherwise.

Assay [1] has as its target T1, mouse tenascin-C rCd4-His-FBG (rat; mouse, UniProt P05540 207-392, limits assumed).
T1 construct: domain: domains 3 and 4; C-terminal FBG fusion; biotinylated in the ELISA screen; also called Mu TNC; mouse TNC rCd4-His-FBG; not shown: 6His tag
T1 sequence (chain (part 1 of 2)): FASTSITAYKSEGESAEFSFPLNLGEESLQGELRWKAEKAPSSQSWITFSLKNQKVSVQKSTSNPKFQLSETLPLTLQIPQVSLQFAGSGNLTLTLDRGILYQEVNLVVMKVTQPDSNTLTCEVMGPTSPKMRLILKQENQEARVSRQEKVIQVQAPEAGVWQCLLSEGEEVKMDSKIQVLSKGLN
T1 sequence (chain (part 2 of 2)): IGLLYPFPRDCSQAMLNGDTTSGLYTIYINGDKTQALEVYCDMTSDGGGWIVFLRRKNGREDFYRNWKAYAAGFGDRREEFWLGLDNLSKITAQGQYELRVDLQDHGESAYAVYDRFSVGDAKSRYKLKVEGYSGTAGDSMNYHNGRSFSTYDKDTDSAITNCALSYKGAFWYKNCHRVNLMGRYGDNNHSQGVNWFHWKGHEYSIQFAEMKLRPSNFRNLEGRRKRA
Kind of assay: SPR, captured Fab, 25 C. As for the experimental part:
(§1) Experiments were performed using a BIAcore T100 instrument with CM5 sensor chip according to the protocol provided with the Human Fab Capture Kit (GE, 28-9583-25). […] After reference signal subtraction, the data was fitted to a global 1:1 fit using the T100 BIAevaluation software (FIGS. 6 a-d).
For orientation: SPR reads the build-up and loss of mass on a sensor chip optically.

Assay [2] has as its target T2, human tenascin-R rCd4-His-FBG (rat; human, UniProt P05540 207-392, limits assumed).
T2 construct: domain: domains 3 and 4; C-terminal FBG fusion; also called Hu TNR; human TNR rCd4-His-FBG; not shown: 6His tag
T2 sequence (chain (part 1 of 2)): T1 sequence (chain (part 1 of 2))
T2 sequence (chain (part 2 of 2)): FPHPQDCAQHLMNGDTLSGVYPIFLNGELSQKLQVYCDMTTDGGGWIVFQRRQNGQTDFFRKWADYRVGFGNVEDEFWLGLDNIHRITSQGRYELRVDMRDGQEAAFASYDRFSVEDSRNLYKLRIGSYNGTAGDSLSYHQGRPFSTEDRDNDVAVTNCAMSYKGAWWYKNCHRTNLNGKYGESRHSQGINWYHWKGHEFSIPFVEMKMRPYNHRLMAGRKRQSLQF
Kind of assay: SPR, captured Fab, 25 C. As for the experimental part:
as §1

The target of assay [3] is T3, human tenascin-C rCd4-His-FBG (rat; human, UniProt P05540 207-392, limits assumed).
T3 construct: domain: domains 3 and 4; C-terminal FBG fusion; biotinylated in the ELISA and HTRF screens; also called Hu TNC; human TNC rCd4-His-FBG; not shown: 6His tag
T3 sequence (chain (part 1 of 2)): T1 sequence (chain (part 1 of 2))
T3 sequence (chain (part 2 of 2)): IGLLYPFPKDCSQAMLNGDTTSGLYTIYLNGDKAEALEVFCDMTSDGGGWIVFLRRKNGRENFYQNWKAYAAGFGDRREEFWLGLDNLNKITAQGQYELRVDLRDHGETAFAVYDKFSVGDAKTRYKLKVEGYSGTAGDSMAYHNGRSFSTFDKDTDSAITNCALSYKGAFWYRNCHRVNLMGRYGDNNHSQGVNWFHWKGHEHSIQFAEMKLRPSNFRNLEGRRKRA
Kind of assay: SPR, captured Fab, 25 C. As for the experimental part: as §1

In assay [4] the target is T1, mouse tenascin-C rCd4-His-FBG. Kind of assay: SPR steady state, captured Fab, 25 C. The protocol: as §1
In assay [5] the target is T2, human tenascin-R rCd4-His-FBG. Kind of assay: SPR steady state, captured Fab, 25 C. As for the experimental part: as §1
The next assay has as its target T4, human Fc-His-FBG (human, UniProt P24821 1974-2201).
T4 sequence: T3 sequence (chain (part 2 of 2))
Nature of the assay: cell-based or functional assay.

Another assay has as its target T5, Human FGB-rCd4.
T5 construct: Not the same construct as m1, which has the FBG at the C terminus; also called human TNC FBG-rCD4; human tenascin-C FBG-rCd4-His (FBG at the N terminus of the rat Cd4 tag); not shown: rat Cd4 (domains 3 and 4) tag, the C-terminal His6 tag and the vector-derived junction residues of pBIOCAM4
T5 chain: T3 sequence (chain (part 2 of 2))
Kind of assay: ELISA (DELFIA), antigen coated on the well, purified Fab at 50 nM, detected with anti-kappa or anti-lambda mAb and Europium-conjugated anti-mouse mAb. Background: ELISA stands for enzyme-linked immunosorbent assay.

The target of assay [6] is T2, human tenascin-R rCd4-His-FBG. Kind of assay: SPR (BIAcore), Fab captured (23 nM) on anti-CL kappa / anti-CL lambda CM5 sensor chip, rCd4-FBG injected up to 2 µM; steady-state plot of response against concentration [Con't]. The protocol: as §1
For assay [7], the target named is T1, mouse tenascin-C rCd4-His-FBG. Kind of assay: SPR, captured purified IgG4, 37 C. The protocol:
(§2) Detailed kinetic parameters were evaluated for the 9 prioritised IgG4 antibodies. Binding characteristics were determined for interaction with human, rat and dog TNC rCD4-His-FBG, and human TNR rCD4-His-FBG. Kinetic assays followed essentially the same protocols as for the off-rate determinations described above, with some modifications as follows. […] Purified anti-FBG IgG4 was diluted to a concentration of 3.5 nM in PBS, pH 7.4, 0.05% Tween-20 and injected into FC2 at a flow rate of 10 μl/min, 60 s contact time. […] Antigens were prepared by doubling dilution in PBS, pH 7.4, 0.05% Tween-20 (highest concentration 100 nM except mouse rCD4-His-FBG which was 7 nM). Assays were performed at 37° C. (30 μl/min, 120 s contact time; mouse rCD4-His-FBGFBG 10 μl/min, 60 s contact time), with both the flow cell and injection chamber equilibrated to this temperature. As before, kinetic parameters were determined by reference cell subtraction and fitting the sensogram experimental data assuming a 1:1 interaction using BIAevaluation software (GE, BR-1005-97).

Assay [8] addresses T3, human tenascin-C rCd4-His-FBG. Kind of assay: SPR, captured purified IgG4, 37 C. The protocol: as §2
Assay [9] addresses T1, mouse tenascin-C rCd4-His-FBG. Nature of the assay: SPR off-rate screen, captured IgG4 supernatant, 25 C. Summed up: (§3)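 SPR at 25 °C: IgG4 (S241P) from culture supernatant, diluted 1:2 in 2×PBS-T, captured on anti-human Fc surface; antigen injected at a fixed 15 nM (human and mouse TNC rCd4-His-FBG) or 100 nM (human TNR rCd4-His-FBG), 30 μl/min. Association 1 min, dissociation 5 min; off-rates from reference-subtracted 1:1 fits.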

Assay [10] has as its target T3, human tenascin-C rCd4-His-FBG. Described as above. The essentials: as §3
Assay [11] concerns the target T6, human His-FBG citrullinated with PAD4 (human, UniProt P24821 1974-2201, arginines citrullinated by peptidylarginine deiminase 4; positions not stated).
T6 construct: also called His-FBG + PAD4; citrullinated His-FBG; not shown: His tag
T6 sequence: T3 sequence (chain (part 2 of 2))
Kind of assay: SPR, captured IgG4, 25 C, mean of 3. As for the experimental part:
(§4) Purified human His-FBG was citrullinated using either peptidylarginine deiminase 2 (PAD2; MQ-16.201-2.5, Modiquest, NL) or peptidylarginine deiminase 4 (PAD4; MQ-16.203-2.5, Modiquest, NL) according to the supplier's instructions. […] Aliquots of His-FBG in deimination buffer were incubated for 2 h at 37° C. in the absence of added PAD enzyme, for use as non-citrullinated control protein. Citrullinated and unmodified His-FBG proteins were used in SPR experiments as described below.
(§5) SPR experiments were performed on a BIAcore 3000 instrument. Anti-human IgG (GE Healthcare) was covalently coupled to the surface of a CM5 sensor chip using amino coupling chemistry. […] The flow rate was 5 μl/min in the immobilization experiments and 20 μl/min for kinetic analyses. The sensor chip surface was regenerated using 3 M MgCl₂. Data were analysed using BIAevaluation program 4.1 (GE Healthcare).

In assay [12] the target is T7, human His-FBG citrullinated with PAD2 (human, UniProt P24821 1974-2201, arginines citrullinated by peptidylarginine deiminase 2; positions not stated).
T7 construct: also called His-FBG + PAD2; citrullinated His-FBG; not shown: His tag
T7 sequence: T3 sequence (chain (part 2 of 2))
Kind of assay: SPR, captured IgG4, 25 C, mean of 3. As for the experimental part: as §4, §5

The target in the next assay is T8, human His-FBG (human, UniProt P24821 1974-2201).
T8 construct: non-citrullinated control, incubated in deimination buffer without PAD enzyme; also called unmodified His-FBG; not shown: His tag
T8 sequence: T3 sequence (chain (part 2 of 2))
Kind of assay: SPR, captured IgG4, 25 C, mean of 3. The protocol: as §4, §5

Assay [13] has as its target T2, human tenascin-R rCd4-His-FBG. Nature of the assay: SPR off-rate screen, captured IgG4 supernatant, 25 C; SPR off-rate screen, native antigen at 100 nM, IgG4 in supernatant, 25 C. The protocol:
The 31 scFv of interest were sub-cloned into a human IgG4 expression vector for generation of antibodies as human IgG4 with a hinge-stabilising mutation (S241P; Angal et al, 1993). […] Briefly, surface plasmon resonance (SPR) experiments were performed using a BIAcore T100 instrument and followed the protocol according to the Human antibody capture kit protocol (GE, BR-1008-39). For off-rate screening, 10,000 response units (RU) of anti-human Fc IgG (GE, BR-1008-39) was immobilised on flow-cells (FC1 and FC2) of a Series 5 CM5 dextran sensor chip (BR-1005-30) using EDC/NHS cross-linking chemistry according to the amine coupling kit protocol (GE, BR-1000-50). Culture supernatants containing expressed IgG4 were diluted 1:2 with 2×PBS-T and injected into FC2 (flowrate 5 μl/min, 60 s contact time) to enable antibody capture at 25° C. […] A fixed concentration of antigen (15 nM of human and mouse TNC rCd4-His-FBG and 100 nM of human TNR rCd4-His-FBG) was injected with a flow-path via FC 1 (reference flow cell) and FC 2 (antibody capture flow cell), with a flow rate of 30 μl/min, and the association and dissociation phases measured over 1 and 5 min time periods, respectively. […] Off rates were determined by reference cell subtraction and fitting the sensogram experimental data assuming a 1:1 interaction using BIAevaluation software (GE, BR-1005-97).

B1: Fab D8 (Fab, V domains shown)
VH: EVQLVQSGAEVKKPGASVKVSCKASGYTFTSYGISWVRQAPGQGLEWMGWISAYNGNTNYAQKLQGRVTMTTDTSTSTAYMELRSLRSDDTAVYYCARNQDSSSDYWGQGTLVTVSS
VL: DIQMTQSPASLPTSVGDRVTITCRASQYIQGFLNWYQQKPGKAPKLLIYDASNLETGVPSRFSGSGSGTDFTLTISSLQPEDFATYYCQQSYSTLQTFGQGTKVDIKR
notes: monomeric Fab
With B1, the Kd in assay [1] is 48.4 nM; in assay [2], 1030 nM; in [3], 8.49 nM; in [4], 41.2 nM; in [5] it was 913 nM; in assay [6], 1110 nM. Further, the koff in assay [1] came out at 0.0716 s⁻¹; in assay [2], 0.57 s⁻¹; in [3], 0.0131 s⁻¹. The kon in [1] was 1.48e+06 M⁻¹ s⁻¹; in [2] it was 555000 M⁻¹ s⁻¹; in assay [3] it was 1.54e+06 M⁻¹ s⁻¹. Also, the “IC50, inhibition of Fc-His-HuFBG-evoked IL-8 release, THP1-Blue cells” value with human Fc-His-FBG was 14.9 nM. Also, the “IC50, inhibition of Fc-His-HuFBG-evoked alkaline phosphatase, THP1-Blue cells” value in the assay with human Fc-His-FBG was determined as 7.2 nM. Also, the binding result with Human FGB-rCd4 is given as “binds”.

B2: B12 human IgG4 (antibody, V domains shown)
VH: QVQLVESGGGLVQPGRSLRLSCAASGFTFDDYAMHWVRQAPGKGLEWVSGISGSGGSTYYADSVKGRFTISRDNAKNSLYLQMNSLRAEDTALYYCAKDISAVPDTFDIWGQGTMVTVSS
VL: B1 VL with S14P, L95P
notes: human IgG4 with hinge S241P; also called B12 parent; B12-hIgG4
In the case of B2, the Kd was 4.5 nM in assay [7]; 0.24 nM in assay [8]; 0.32 nM in assay [11]; 0.32 nM in [12]; 0.17 nM in the assay with human His-FBG. For the same molecule, the koff amounted to 0.00138 s⁻¹ in assay [7]; 0.00112 s⁻¹ in assay [8]; 0.03 s⁻¹ in assay [9]; 0.00015 s⁻¹ in assay [10]; 0.00078 s⁻¹ in assay [11]; 0.00096 s⁻¹ in assay [12]. The koff with human His-FBG stood at 0.00068 s⁻¹; in assay [13] it was 0.1 s⁻¹. For the same molecule, the kon was 300000 M⁻¹ s⁻¹ in assay [7]; 4.71e+06 M⁻¹ s⁻¹ in assay [8]; 2.6e+06 M⁻¹ s⁻¹ in [11]; 3e+06 M⁻¹ s⁻¹ in assay [12]; 4.1e+06 M⁻¹ s⁻¹ with human His-FBG.

In general, Kd refers to a measure of binding affinity in units of concentration. A lower Kd goes with a tighter complex. The koff is a measure of how fast the partners let go of each other. One may read the kon as a measure of how fast the partners come together. A low value points to slower complex formation.
